In the supplement of paper PMC10567573:

B1: ZNF263 (parent)
chain: VPGTQVGQGGKLWDPSVQSCKEGL
B2: C9orf25 (parent)
chain: LARKGSLKNGSMGSPVNQQPKKNN

Variants of: B1
Assay: protein stability index of a GFP-peptide fusion (GPS, HEK-293T) (PSI 1-6); higher = more stable
Settings: c terminus: a fixed tail appended
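Also: lentivirally expressed fusions sorted by FACS into six bins by GFP to DsRed ratio, PSI derived from sequencing read proportions per bin multiplied by bin number.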

Variant	protein stability index
GPGTQVGQGGKLWDPSVQSCKEGL	4.05
KPGTQVGQGGKLWDPSVQSCKEGL	4.36
CPGTQVGQGGKLWDPSVQSCKEGL	4.28
LPGTQVGQGGKLWDPSVQSCKEGL	3.53
IPGTQVGQGGKLWDPSVQSCKEGL	4.31
EPGTQVGQGGKLWDPSVQSCKEGL	5.15
HPGTQVGQGGKLWDPSVQSCKEGL	4.17
MPGTQVGQGGKLWDPSVQSCKEGL	4.69
QPGTQVGQGGKLWDPSVQSCKEGL	4.51
SPGTQVGQGGKLWDPSVQSCKEGL	4.19
DPGTQVGQGGKLWDPSVQSCKEGL	4.85
APGTQVGQGGKLWDPSVQSCKEGL	4.56
NPGTQVGQGGKLWDPSVQSCKEGL	4.53
PPGTQVGQGGKLWDPSVQSCKEGL	4.78
FPGTQVGQGGKLWDPSVQSCKEGL	1.64
RPGTQVGQGGKLWDPSVQSCKEGL	4.08

Variants of: B2
Assay: as above
Settings: c terminus: a fixed tail appended

Variant	protein stability index
LARKGSLKNGSMGSPVNQHPKKNN	4.69
LARKGSLKNGSMGSPVNQVPKKNN	4.86
LARKGSLKNGSMGSPVNQCPKKNN	4.68
LARKGSLKNGSMGSPVNQRPKKNN	4.45
LARKGSLKNGSMGSPVNQLPKKNN	4.67
LARKGSLKNGSMGSPVNQAPKKNN	4.92
LARKGSLKNGSMGSPVNQYPKKNN	4.58
LARKGSLKNGSMGSPVNQKPKKNN	4.22
LARKGSLKNGSMGSPVNQTPKKNN	4.74
LARKGSLKNGSMGSPVNQFPKKNN	4.5
LARKGSLKNGSMGSPVNQDPKKNN	4.78
LARKGSLKNGSMGSPVNQSPKKNN	4.89
LARKGSLKNGSMGSPVNQMPKKNN	4.74
LARKGSLKNGSMGSPVNQNPKKNN	4.72
LARKGSLKNGSMGSPVNQGPKKNN	5.02
LARKGSLKNGSMGSPVNQIPKKNN	4.85
LARKGSLKNGSMGSPVNQEPKKNN	4.73
LARKGSLKNGSMGSPVNQWPKKNN	3.79
LARKGSLKNGSMGSPVNQPPKKNN	4.39
LARKGSLKNGSMGSPVNQQHKKNN	3.98
LARKGSLKNGSMGSPVNQQMKKNN	4.56
LARKGSLKNGSMGSPVNQQFKKNN	4.03
LARKGSLKNGSMGSPVNQQTKKNN	3.92
LARKGSLKNGSMGSPVNQQVKKNN	5.07
LARKGSLKNGSMGSPVNQQGKKNN	4.5

Variant	protein stability index
LARKGSLKNGSMGSPVNQQCKKNN	4.54
LARKGSLKNGSMGSPVNQQKKKNN	4.36
LARKGSLKNGSMGSPVNQQRKKNN	4.25
LARKGSLKNGSMGSPVNQQYKKNN	4.32
LARKGSLKNGSMGSPVNQQQKKNN	4.72
LARKGSLKNGSMGSPVNQQIKKNN	4.65
LARKGSLKNGSMGSPVNQQWKKNN	4.1
LARKGSLKNGSMGSPVNQQDKKNN	5.23
LARKGSLKNGSMGSPVNQQSKKNN	4.34
LARKGSLKNGSMGSPVNQQLKKNN	4.11
LARKGSLKNGSMGSPVNQQAKKNN	4.54
LARKGSLKNGSMGSPVNQQEKKNN	4.59
LARKGSLKNGSMGSPVNQQNKKNN	4.67
LARKGSLKNGSMGSPVNQQPQKNN	4.48
LARKGSLKNGSMGSPVNQQPMKNN	4.21
LARKGSLKNGSMGSPVNQQPFKNN	4.07
LARKGSLKNGSMGSPVNQQPVKNN	4.32
LARKGSLKNGSMGSPVNQQPGKNN	4.25
LARKGSLKNGSMGSPVNQQPRKNN	4.82
LARKGSLKNGSMGSPVNQQPAKNN	4.7
LARKGSLKNGSMGSPVNQQPHKNN	4.9
LARKGSLKNGSMGSPVNQQPIKNN	4.28
LARKGSLKNGSMGSPVNQQPNKNN	4.65
LARKGSLKNGSMGSPVNQQPYKNN	4
LARKGSLKNGSMGSPVNQQPEKNN	4.87

Variant	protein stability index
LARKGSLKNGSMGSPVNQQPWKNN	2.95
LARKGSLKNGSMGSPVNQQPDKNN	5.25
LARKGSLKNGSMGSPVNQQPSKNN	4.3
LARKGSLKNGSMGSPVNQQPPKNN	4.18
LARKGSLKNGSMGSPVNQQPLKNN	4.25
LARKGSLKNGSMGSPVNQQPTKNN	4.39
LARKGSLKNGSMGSPVNQQPCKNN	3.98
LARKGSLKNGSMGSPVNQQPKSNN	4.41
LARKGSLKNGSMGSPVNQQPKTNN	4.28
LARKGSLKNGSMGSPVNQQPKFNN	3.56
LARKGSLKNGSMGSPVNQQPKDNN	4.21
LARKGSLKNGSMGSPVNQQPKHNN	4.02
LARKGSLKNGSMGSPVNQQPKGNN	4.54
LARKGSLKNGSMGSPVNQQPKCNN	4.49
LARKGSLKNGSMGSPVNQQPKWNN	3.9
LARKGSLKNGSMGSPVNQQPKLNN	3.81
LARKGSLKNGSMGSPVNQQPKNNN	4.43
LARKGSLKNGSMGSPVNQQPKVNN	3.17
LARKGSLKNGSMGSPVNQQPKENN	5.05
LARKGSLKNGSMGSPVNQQPKPNN	4.42
LARKGSLKNGSMGSPVNQQPKANN	4.51
LARKGSLKNGSMGSPVNQQPKMNN	4.49
LARKGSLKNGSMGSPVNQQPKINN	3.8
LARKGSLKNGSMGSPVNQQPKQNN	4.82
LARKGSLKNGSMGSPVNQQPKYNN	3.81

Variant	protein stability index
LARKGSLKNGSMGSPVNQQPKRNN	4.37
LARKGSLKNGSMGSYVNQQPKKNN	4.4
LARKGSLKNGSMGSPVSQQPKKNN	4.54
LARKGSLKNGSMGSPVGQQPKKNN	4.27
LARKGSLKNGSMGSPVDQQPKKNN	5.12
LARKGSLKNGSMGSPVQQQPKKNN	4.74
LARKGSLKNGSMGSPVHQQPKKNN	5.11
LARKGSLKNGSMGSPVLQQPKKNN	4.64
LARKGSLKNGSMGSPVEQQPKKNN	5.07
LARKGSLKNGSMGSPVMQQPKKNN	4.83
LARKGSLKNGSMGSPVVQQPKKNN	4.6
LARKGSLKNGSMGSPVRQQPKKNN	4.47
LARKGSLKNGSMGSPVTQQPKKNN	3.98
LARKGSLKNGSMGSPVFQQPKKNN	4.31
LARKGSLKNGSMGSPVPQQPKKNN	4.95
LARKGSLKNGSMGSPVAQQPKKNN	4.25
LARKGSLKNGSMGSPVIQQPKKNN	4.72
LARKGSLKNGSMGSPVWQQPKKNN	3.62
LARKGSLKNGSMGSPVCQQPKKNN	4.53
LARKGSLKNGSMGSPVKQQPKKNN	4.47
LARKGSLKNGSMGSPVYQQPKKNN	4.27
LARKGSLKNGSMGSPENQQPKKNN	5.39
LARKGSLKNGSMGSPNNQQPKKNN	4.4
LARKGSLKNGSMGSPHNQQPKKNN	5.1
LARKGSLKNGSMGSPRNQQPKKNN	4.69

Variant	protein stability index
LARKGSLKNGSMGSPMNQQPKKNN	4.62
LARKGSLKNGSMGSPSNQQPKKNN	4.68
LARKGSLKNGSMGSPCNQQPKKNN	4.23
LARKGSLKNGSMGSPKNQQPKKNN	4.14
LARKGSLKNGSMGSPANQQPKKNN	4.69
LARKGSLKNGSMGSPWNQQPKKNN	4.01
LARKGSLKNGSMGSPQNQQPKKNN	5
LARKGSLKNGSMGSPFNQQPKKNN	3.91
LARKGSLKNGSMGSPINQQPKKNN	4.79
LARKGSLKNGSMGSPTNQQPKKNN	4.75
LARKGSLKNGSMGSPYNQQPKKNN	3.87
LARKGSLKNGSMGSPGNQQPKKNN	4.75
LARKGSLKNGSMGSPPNQQPKKNN	4.89
LARKGSLKNGSMGSPDNQQPKKNN	4.85
LARKGSLKNGSMGSPLNQQPKKNN	4.64
LARKGSLKNGSMGSPVNQQPKKHN	4.91
LARKGSLKNGSMGSPVNQQPKKRN	4.18
LARKGSLKNGSMGSPVNQQPKKFN	4.19
LARKGSLKNGSMGSPVNQQPKKQN	4.64
LARKGSLKNGSMGSPVNQQPKKKN	4.61
LARKGSLKNGSMGSPVNQQPKKIN	4.61
LARKGSLKNGSMGSPVNQQPKKAN	4.63
LARKGSLKNGSMGSPVNQQPKKLN	4.04
LARKGSLKNGSMGSPVNQQPKKSN	4.58
LARKGSLKNGSMGSPVNQQPKKVN	4.59

Variant	protein stability index
LARKGSLKNGSMGSPVNQQPKKMN	3.73
LARKGSLKNGSMGSPVNQQPKKDN	5.02
LARKGSLKNGSMGSPVNQQPKKWN	4
LARKGSLKNGSMGSPVNQQPKKGN	4.66
LARKGSLKNGSMGSPVNQQPKKYN	3.82
LARKGSLKNGSMGSPVNQQPKKCN	4.68
LARKGSLKNGSMGSPVNQQPKKTN	4.89
LARKGSLKNGSMGSPVNQQPKKEN	4.68
LARKGSLKNGSMGSPVNQQPKKPN	5.24
LARKGSLKNGSMGSPVNKQPKKNN	5.08
LARKGSLKNGSMGSPVNDQPKKNN	5.17
LARKGSLKNGSMGSPVNPQPKKNN	4.55
LARKGSLKNGSMGSPVNYQPKKNN	4.17
LARKGSLKNGSMGSPVNCQPKKNN	4.6
LARKGSLKNGSMGSPVNMQPKKNN	4.64
LARKGSLKNGSMGSPVNHQPKKNN	4.82
LARKGSLKNGSMGSPVNLQPKKNN	4.32
LARKGSLKNGSMGSPVNNQPKKNN	4.59
LARKGSLKNGSMGSPVNRQPKKNN	4
LARKGSLKNGSMGSPVNSQPKKNN	4.97
LARKGSLKNGSMGSPVNEQPKKNN	5.18
LARKGSLKNGSMGSPVNWQPKKNN	3.67
LARKGSLKNGSMGSPVNFQPKKNN	4.4
LARKGSLKNGSMGSPVNIQPKKNN	4.52
LARKGSLKNGSMGSPVNAQPKKNN	4.74

Variant	protein stability index
LARKGSLKNGSMGSPVNGQPKKNN	4.37
LARKGSLKNGSMGSPVNTQPKKNN	5.01
LARKGSLKNGSMGSPVNVQPKKNN	4.64
LARKGSLKNGSMGSPVNQQPKKNL	4.76
LARKGSLKNGSMGSPVNQQPKKNS	4.7
LARKGSLKNGSMGSPVNQQPKKNE	4.14
LARKGSLKNGSMGSPVNQQPKKNH	4.79
LARKGSLKNGSMGSPVNQQPKKNG	4.76
LARKGSLKNGSMGSPVNQQPKKNF	3.96
LARKGSLKNGSMGSPVNQQPKKNT	4.83
LARKGSLKNGSMGSPVNQQPKKNC	4.69
LARKGSLKNGSMGSPVNQQPKKNA	4.52
LARKGSLKNGSMGSPVNQQPKKNP	4.48
LARKGSLKNGSMGSPVNQQPKKNW	3.88
LARKGSLKNGSMGSPVNQQPKKNK	5.08
LARKGSLKNGSMGSPVNQQPKKNI	3.82
LARKGSLKNGSMGSPVNQQPKKNY	3.78
LARKGSLKNGSMGSPVNQQPKKNR	4.42
LARKGSLKNGSMGSPVNQQPKKNQ	4.85
LARKGSLKNGSMGSPVNQQPKKND	4.85
LARKGSLKNGSMGSPVNQQPKKNM	4.02
LARKGSLKNGSMGSPVNQQPKKNV	3.85
